Experimental data reported in article PMC11904002.

Biological target: T1, Signal peptide peptidase (SPP), human, with a C-terminal myc-tag (human), Q8TCT9
T1 chain: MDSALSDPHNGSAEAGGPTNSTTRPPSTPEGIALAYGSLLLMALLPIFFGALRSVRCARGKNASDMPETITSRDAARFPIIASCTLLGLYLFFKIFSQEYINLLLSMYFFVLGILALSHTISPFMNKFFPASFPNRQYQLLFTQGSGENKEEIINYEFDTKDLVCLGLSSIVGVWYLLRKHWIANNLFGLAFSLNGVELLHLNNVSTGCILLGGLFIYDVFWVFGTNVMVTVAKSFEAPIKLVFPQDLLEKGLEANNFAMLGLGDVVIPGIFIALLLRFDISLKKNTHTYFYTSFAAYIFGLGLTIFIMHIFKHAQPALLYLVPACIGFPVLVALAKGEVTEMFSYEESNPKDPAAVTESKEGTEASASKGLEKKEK
Experiment: SDS-PAGE and Western blot of cell lysate; lysate of transfected HEK cells (50 mM Tris/HCl pH 7.4, 150 mM NaCl, 1% Triton X-100, 0.1% SDS); SDS-PAGE with tris-glycine buffer; SPP band at the size of a dimer
Conditions: remark: other sources report otherwise

stoichiometry N: 2
B1: Signal peptide peptidase (SPP), human, with a C-terminal myc-tag, Q8TCT9-1 1-377 (enzyme)
chain: MDSALSDPHNGSAEAGGPTNSTTRPPSTPEGIALAYGSLLLMALLPIFFGALRSVRCARGKNASDMPETITSRDAARFPIIASCTLLGLYLFFKIFSQEYINLLLSMYFFVLGILALSHTISPFMNKFFPASFPNRQYQLLFTQGSGENKEEIINYEFDTKDLVCLGLSSIVGVWYLLRKHWIANNLFGLAFSLNGVELLHLNNVSTGCILLGGLFIYDVFWVFGTNVMVTVAKSFEAPIKLVFPQDLLEKGLEANNFAMLGLGDVVIPGIFIALLLRFDISLKKNTHTYFYTSFAAYIFGLGLTIFIMHIFKHAQPALLYLVPACIGFPVLVALAKGEVTEMFSYEESNPKDPAAVTESKEGTEASASKGLEKKEK
